Assay results reported in US20220348617A1 (H LEE MOFFITT CANCER CENTER AND RESEARCH INSTITUTE, published 2022).

Legend:
Notch 3 EGF domains 5-12 = biological target: T1, Notch 3 EGF domains 5-12 (human, UniProt Q9UM47 197-505); assay: SPR, Notch on streptavidin chip, DLL4 flowed
T1 construct: domain: EGF domains 5-12; the other passages say only 'Notch 3'
T1 sequence (looked up): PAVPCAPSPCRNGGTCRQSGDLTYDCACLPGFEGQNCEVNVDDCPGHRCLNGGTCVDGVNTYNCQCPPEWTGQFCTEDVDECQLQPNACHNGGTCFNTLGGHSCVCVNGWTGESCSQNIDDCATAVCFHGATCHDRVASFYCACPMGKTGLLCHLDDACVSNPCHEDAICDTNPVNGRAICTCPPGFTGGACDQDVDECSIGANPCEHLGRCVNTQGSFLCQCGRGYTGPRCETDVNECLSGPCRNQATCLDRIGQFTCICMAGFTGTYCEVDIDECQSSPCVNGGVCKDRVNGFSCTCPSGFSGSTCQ

Notch1 EGF domains 6-13 = biological target: T2, Notch1 EGF domains 6-13 (human, UniProt P46531 218-526); assay: SPR, Notch immobilised, DLL4 flowed
T2 construct: domain: EGF domains 6-13; Immobilised on a streptavidin sensor chip; the other passages say only 'Notch 1'
Method: Binding affinities between DLL4 variants and Notch receptor subtypes were determined by surface plasmon resonance (SPR) (FIG. 7). Notch1 EGF domains 6-13, Notch2, EGF domains 6-13, or Notch 3 EGF domains 5-12 were immobilized on a sensor chip and various concentrations of DLL4 ligands were injected over the surface. A co-culture assay was used to monitor the inhibition of Notch signaling by DLL4.v3 (FIG. 8). A fluorescent Notch1 reporter cell line (CHO^N1) was co-cultured with 293T cells expressing wild-type human DLL4 (293TDLL4) in 96-well plates to activate signaling. This value was normalized to 100% Notch1 activation. A reduction in Notch1 activation was observed upon the addition of increasing concentrations of DLL4.v3 (20 nM, 200 nM, 2000 nM) to the co-cultures.

binding result (Notch 3 EGF domains 5-12): binds
binding result (Notch1 EGF domains 6-13): binds
B1: wildtype (WT) human DLL4 (ligand)
chain: SGVFQLQLQEFINERGVLASGRPCEPGCRTFFRVCLKHFQAVVSPGPCTFGTVSTPVLGTNSFAVRDDSSGGGRNPLQLPFNFTWPGTFSLIIEAWHAPGDDLRPEALPPDALISKIAIQGSLAVGQNWLLDEQTSTLTRLRYSYRVICSDNYYGDNCSRLCKKRNDHFGHYVCQPDGNLSCLPGWTGEYCQQPICLSGCHEQNGYCSKPAECLCRPGWQGRLCNECIPHNGCRHGTCSTPWQCTCDEGWGGLFCDQDLNYCTHHSPCKNGATCSNSGQRSYTCTCRPGYTGVDCE
notes: Soluble protein flowed over immobilised Notch in SPR; also called wild-type DLL4
